# Experimental data published in paper PMC11266487.
# Molecular target: angiotensin converting enzyme 2 (ACE2) (human (endogenous in BCi.NS1.1)) (UniProt Q9BYF1)
# UniProt Q9BYF1, sequence (Q9BYF1 18-805): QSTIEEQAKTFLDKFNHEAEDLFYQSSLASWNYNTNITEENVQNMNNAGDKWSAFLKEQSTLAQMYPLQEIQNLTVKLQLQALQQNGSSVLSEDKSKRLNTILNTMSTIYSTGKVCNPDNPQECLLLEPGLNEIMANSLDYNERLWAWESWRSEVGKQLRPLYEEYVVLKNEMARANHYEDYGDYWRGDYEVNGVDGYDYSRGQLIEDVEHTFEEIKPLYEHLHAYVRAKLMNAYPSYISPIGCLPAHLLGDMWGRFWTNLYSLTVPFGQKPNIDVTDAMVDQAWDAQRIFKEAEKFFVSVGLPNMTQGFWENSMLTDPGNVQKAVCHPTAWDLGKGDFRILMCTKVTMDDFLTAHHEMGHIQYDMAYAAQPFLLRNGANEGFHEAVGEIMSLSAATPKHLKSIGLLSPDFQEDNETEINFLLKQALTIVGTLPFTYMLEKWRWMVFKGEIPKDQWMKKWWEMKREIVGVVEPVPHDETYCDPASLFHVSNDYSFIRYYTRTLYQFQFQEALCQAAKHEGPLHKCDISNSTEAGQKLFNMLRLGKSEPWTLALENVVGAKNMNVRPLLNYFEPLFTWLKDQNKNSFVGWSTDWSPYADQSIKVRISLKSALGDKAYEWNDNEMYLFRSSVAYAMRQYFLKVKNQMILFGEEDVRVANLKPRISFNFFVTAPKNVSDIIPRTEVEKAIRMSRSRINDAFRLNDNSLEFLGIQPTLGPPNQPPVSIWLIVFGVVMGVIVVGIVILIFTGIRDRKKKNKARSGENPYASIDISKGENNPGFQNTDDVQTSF
row,Substance,"Ki for reduction of cAMP-activated CFTR chloride channel activity (Ussing chamber, differentiated BCi.NS1.1 epithelia) [µg/mL]"
1,Wuhan-Hu-1 [S1S2] spike protein (natural protein),0.446
2,β-1.351 [S1S2] spike protein (natural protein),0.21
